Assay results taken from patent publication US20240018245A1 (Genentech, published 2024).

Experiments:
[1] = biological target: T1, FcRH5 (fragment crystallizable receptor-like 5) on MOLP-2 cells (human, UniProt Q96RD9 16-977); assay: cell-based or functional assay
T1 sequence (looked up): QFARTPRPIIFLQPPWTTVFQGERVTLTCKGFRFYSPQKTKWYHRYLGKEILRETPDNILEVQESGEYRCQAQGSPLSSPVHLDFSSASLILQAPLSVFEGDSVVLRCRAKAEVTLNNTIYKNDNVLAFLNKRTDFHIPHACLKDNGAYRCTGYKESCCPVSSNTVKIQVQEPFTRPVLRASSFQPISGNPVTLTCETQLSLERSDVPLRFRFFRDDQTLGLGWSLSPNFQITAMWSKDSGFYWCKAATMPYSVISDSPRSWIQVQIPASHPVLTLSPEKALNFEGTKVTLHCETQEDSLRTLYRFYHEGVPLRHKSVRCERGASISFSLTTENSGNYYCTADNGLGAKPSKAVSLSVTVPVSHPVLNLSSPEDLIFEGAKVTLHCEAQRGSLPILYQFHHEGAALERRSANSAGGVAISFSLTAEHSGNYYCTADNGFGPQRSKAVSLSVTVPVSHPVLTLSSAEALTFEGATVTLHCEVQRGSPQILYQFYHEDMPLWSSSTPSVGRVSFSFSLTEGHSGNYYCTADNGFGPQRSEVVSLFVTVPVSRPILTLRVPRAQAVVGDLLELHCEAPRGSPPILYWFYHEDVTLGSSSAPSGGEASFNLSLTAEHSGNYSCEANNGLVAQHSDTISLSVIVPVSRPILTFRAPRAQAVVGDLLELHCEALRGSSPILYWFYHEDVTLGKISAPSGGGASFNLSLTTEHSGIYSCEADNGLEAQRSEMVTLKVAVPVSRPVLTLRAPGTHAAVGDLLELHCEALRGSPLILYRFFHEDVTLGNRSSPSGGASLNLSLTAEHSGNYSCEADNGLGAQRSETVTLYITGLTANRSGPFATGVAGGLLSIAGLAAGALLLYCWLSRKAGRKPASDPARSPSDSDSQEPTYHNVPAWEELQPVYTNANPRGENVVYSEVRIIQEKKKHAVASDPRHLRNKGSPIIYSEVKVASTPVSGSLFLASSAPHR

[2] = biological target: CD3 on T cells of human peripheral blood mononuclear cells (PBMCs) (human, UniProt P07766 23-207); assay: cell-based or functional assay
[3] = biological target: T2, CD3 (cluster of differentiation 3) (UniProt P07766 23-126); assay: method not stated; monovalent KD used to calculate CD3 receptor occupancy
T2 construct: also called CD3 antigen
T2 sequence (P07766 23-126): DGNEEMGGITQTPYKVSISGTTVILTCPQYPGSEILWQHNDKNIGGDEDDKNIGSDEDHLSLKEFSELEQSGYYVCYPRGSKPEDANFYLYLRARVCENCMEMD

Chain of CD3 on T cells of human peripheral blood mononuclear cells (PBMCs) (P07766 23-207): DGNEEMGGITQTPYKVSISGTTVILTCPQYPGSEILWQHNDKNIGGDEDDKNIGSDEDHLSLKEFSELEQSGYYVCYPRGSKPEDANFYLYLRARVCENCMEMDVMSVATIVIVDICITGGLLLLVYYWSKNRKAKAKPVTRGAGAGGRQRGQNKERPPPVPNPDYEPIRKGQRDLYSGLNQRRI

B1: cevostamab (bispecific antibody, human IgG1, kappa, N297G)
heavy 1: not shown
light 1: DIQMTQSPSSLSASVGDRVTITCKASQDVRNLVVWFQQKPGKAPKLLIYSGSYRYSGVPSRFSGSGSGTDFTLTISSLQPEDFATYYCQQHYSPPYTFGQGTKVEIKRTVAAPSVFIFPPSDEQLKSGTASVVCLLNNFYPREAKVQWKVDNALQSGNSQESVTEQDSKDSTYSLSSTLTLSKADYEKHKVYACEVTHQGLSSPVTKSFNRGEC
heavy 2: EVQLVQSGAEVKKPGASVKVSCKASGFTFTSYYIHWVRQAPGQGLEWIGWIYPENDNTKYNEKFKDRVTITADTSTSTAYLELSSLRSEDTAVYYCARDGYSRYYFDYWGQGTLVTVSSASTKGPSVFPLAPSSKSTSGGTAALGCLVKDYFPEPVTVSWNSGALTSGVHTFPAVLQSSGLYSLSSVVTVPSSSLGTQTYICNVNHKPSNTKVDKKVEPKSCDKTHTCPPCPAPELLGGPSVFLFPPKPKDTLMISRTPEVTCVVVDVSHEDPEVKFNWYVDGVEVHNAKTKPREEQYGSTYRVVSVLTVLHQDWLNGKEYKCKVSNKALPAPIEKTISKAKGQPREPQVYTLPPSREEMTKNQVSLSCAVKGFYPSDIAVEWESNGQPENNYKTTPPVLDSDGSFFLVSKLTVDKSRWQQGNVFSCSVMHEALHNHYTQKSLSLSPGK
light 2: not shown
notes: Humanized full-length non-glycosylated IgG1 kappa, knobs-into-holes; also called BFCR4350A; RO7187797
EC50 for T-cell activation in the in vitro human PBMC:MOLP-2 co-culture [1]: 0.0588 µg/mL | EC50 for T-cell activation in the in vitro human PBMC:MOLP-2 co-culture [2]: 0.0588 µg/mL | Kd [3]: 2.6 nM
